This test has as its target T1, His-tagged, wild-type DNA polymerase IV (Pol IV) (Escherichia coli, UniProt Q47155 1-351).
T1 sequence (looked up): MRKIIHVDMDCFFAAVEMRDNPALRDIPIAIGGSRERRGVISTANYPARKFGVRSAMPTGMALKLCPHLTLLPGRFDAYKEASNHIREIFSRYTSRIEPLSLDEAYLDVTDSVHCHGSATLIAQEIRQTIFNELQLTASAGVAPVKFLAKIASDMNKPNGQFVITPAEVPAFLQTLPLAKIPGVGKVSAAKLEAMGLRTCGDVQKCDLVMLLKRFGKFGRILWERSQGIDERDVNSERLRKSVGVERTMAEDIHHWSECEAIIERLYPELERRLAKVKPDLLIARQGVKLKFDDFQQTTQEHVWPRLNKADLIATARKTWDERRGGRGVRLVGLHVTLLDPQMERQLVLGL
Nature of the test: pull-down.

Here are results for one molecule from article PMC3401449 (Nucleic Acids Research, 2012).

WMDFDDDIPF [SSB-Ct peptide (Trp–Met–Asp–Phe–Asp–Asp–Asp–Ile–Pro–Phe)]: the binding result was “binds”.
